Values of other authors as cited in paper PMC3600088.

Target: Protective antigen (PA) (Bacillus anthracis) (UniProt P13423)

CMG2 (from UniProt P58335)
Kd: > 170 pM
